Key:
[1] = biological target: SUZ12-3XFLAG PRC2.1mut (loss-of-PRC2.1 mutant, (338–353)-to-GSGSGS) (human (edited endogenous locus in WTC-11 hiPSCs)), Q15022; test: affinity purification with mass spectrometry; details: remark: other sources report otherwise
[2] = biological target: SUZ12-3XFLAG PRC2.2mut (loss-of-PRC2.2 mutant, F99A, R103A, L105A, I106A) (human (edited endogenous locus in WTC-11 hiPSCs)), Q15022; test: affinity purification with mass spectrometry; details: remark: other sources report otherwise

| Binder | fold less enriched than with WT SUZ12 [1] [fold] | fold less enriched than with WT SUZ12 [2] [fold] |
| --- | --- | --- |
| EPOP, A6NHQ4 1-379 (natural protein) METLCPAPRLAVPASPRGSPCSPTPRKPCRGTQEFSPLCLRALAFCALAKPRASSLGPGPGELAARSPVLRGPQAPLRPGGWAPDGLKHLWAPTGRPGVPNTAAGEDADVAACPRRGEEEEGGGGFPHFGVRSCAPPGRCPAPPHPRESTTSFASAPPRPAPGLEPQRGPAASPPQEPSSRPPSPPAGLSTEPAGPGTAPRPFLPGQPAEVDGNPPPAAPEAPAASPSTASPAPAAPGDLRQEHFDRLIRRSKLWCYAKGFALDTPSLRRGPERPPAKGPARGAAKKRRLPAPPPRTAQPRRPAPTLPTTSTFSLLNCFPCPPALVVGEDGDLKPASSLRLQGDSKPPPAHPLWRWQMGGPAVPEPPGLKFWGINMDES | 48 |  |
| MTF2 (endogenous, hiPSCs), Q9Y483 1-593 (natural protein) MRDSTGAGNSLVHKRSPLRRNQKTPTSLTKLSLQDGHKAKKPACKFEEGQDVLARWSDGLFYLGTIKKINILKQSCFIIFEDSSKSWVLWKDIQTGATGSGEMVCTICQEEYSEAPNEMVICDKCGQGYHQLCHTPHIDSSVIDSDEKWLCRQCVFATTTKRGGALKKGPNAKALQVMKQTLPYSVADLEWDAGHKTNVQQCYCYCGGPGDWYLKMLQCCKCKQWFHEACVQCLQKPMLFGDRFYTFICSVCSSGPEYLKRLPLQWVDIAHLCLYNLSVIHKKKYFDSELELMTYINENWDRLHPGELADTPKSERYEHVLEALNDYKTMFMSGKEIKKKKHLFGLRIRVPPVPPNVAFKAEKEPEGTSHEFKIKGRKASKPISDSREVSNGIEKKGKKKSVGRPPGPYTRKMIQKTAEPLLDKESISENPTLDLPCSIGRTEGTAHSSNTSDVDFTGASSAKETTSSSISRHYGLSDSRKRTRTGRSWPAAIPHLRRRRGRLPRRALQTQNSEIVKDDEGKEDYQFDELNTEILNNLADQELQLNHLKNSITSYFGAAGRIACGEKYRVLARRVTLDGKVQYLVEWEGATAS | 35 |  |
| JARID2 (endogenous, hiPSCs), Q92833 1-1246 (natural protein) MSKERPKRNIIQKKYDDSDGIPWSEERVVRKVLYLSLKEFKNSQKRQHAEGIAGSLKTVNGLLGNDQSKGLGPASEQSENEKDDASQVSSTSNDVSSSDFEEGPSRKRPRLQAQRKFAQSQPNSPSTTPVKIVEPLLPPPATQISDLSKRKPKTEDFLTFLCLRGSPALPNSMVYFGSSQDEEEVEEEDDETEDVKTATNNASSSCQSTPRKGKTHKHVHNGHVFNGSSRSTREKEPVQKHKSKEATPAKEKHSDHRADSRREQASANHPAAAPSTGSSAKGLAATHHHPPLHRSAQDLRKQVSKVNGVTRMSSLGAGVTSAKKMREVRPSPSKTVKYTATVTKGAVTYTKAKRELVKDTKPNHHKPSSAVNHTISGKTESSNAKTRKQVLSLGGASKSTGPAVNGLKVSGRLNPKSCTKEVGGRQLREGLQLREGLRNSKRRLEEAHQAEKPQSPPKKMKGAAGPAEGPGKKAPAERGLLNGHVKKEVPERSLERNRPKRATAGKSTPGRQAHGKADSASCENRSTSQPESVHKPQDSGKAEKGGGKAGWAAMDEIPVLRPSAKEFHDPLIYIESVRAQVEKFGMCRVIPPPDWRPECKLNDEMRFVTQIQHIHKLGRRWGPNVQRLACIKKHLKSQGITMDELPLIGGCELDLACFFRLINEMGGMQQVTDLKKWNKLADMLRIPRTAQDRLAKLQEAYCQYLLSYDSLSPEEHRRLEKEVLMEKEILEKRKGPLEGHTENDHHKFHPLPRFEPKNGLIHGVAPRNGFRSKLKEVGQAQLKTGRRRLFAQEKEVVKEEEEDKGVLNDFHKCIYKGRSVSLTTFYRTARNIMSMCFSKEPAPAEIEQEYWRLVEEKDCHVAVHCGKVDTNTHGSGFPVGKSEPFSRHGWNLTVLPNNTGSILRHLGAVPGVTIPWLNIGMVFSTSCWSRDQNHLPYIDYLHTGADCIWYCIPAEEENKLEDVVHTLLQANGTPGLQMLESNVMISPEVLCKEGIKVHRTVQQSGQFVVCFPGSFVSKVCCGYSVSETVHFATTQWTSMGFETAKEMKRRHIAKPFSMEKLLYQIAQAEAKKENGPTLSTISALLDELRDTELRQRRQLFEAGLHSSARYGSHDGSSTVADGKKKPRKWLQLETSERRCQICQHLCYLSMVVQENENVVFCLECALRHVEKQKSCRGLKLMYRYDEEQIISLVNQICGKVSGKNGSIENCLSKPTPKRGPRKRATVDVPPSRLSASSSSKSASSSS |  | 13 |
